The values below come from PMC3177189.

Read-outs that look alike come from different tables or passages of the source.

The target in data set [1] is T1, AaNusB;AaNusE (S10) loop deletion (Aquifex aeolicus;Aquifex aeolicus, UniProt O66530;O66430 1-148;1-46+=S+69-104, |internal_change).
T1 sequence 1: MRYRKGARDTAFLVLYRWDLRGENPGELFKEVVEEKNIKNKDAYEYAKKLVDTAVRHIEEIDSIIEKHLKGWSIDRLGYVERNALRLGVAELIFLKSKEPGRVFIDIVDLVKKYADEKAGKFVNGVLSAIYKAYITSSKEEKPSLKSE
T1 sequence 2: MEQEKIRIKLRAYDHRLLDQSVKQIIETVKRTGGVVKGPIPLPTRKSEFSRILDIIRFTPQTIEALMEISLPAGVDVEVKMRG
As to the kind of experiment: crystal structure.

The next data set concerns the target EcNusB F122D (Escherichia coli, UniProt P0A780 1-139, F122D). As to the kind of experiment: ITC. For orientation: Isothermal titration calorimetry measures the heat released or taken up as one component is titrated into another.
Data set [2] deals with T1, AaNusB;AaNusE (S10) loop deletion. As to the kind of experiment: crystal structure. This is another data set of the same source.
For a further data set, the target named is EcNusB wt (Escherichia coli, UniProt P0A780 1-139). The data set is described as follows: NMR.

B1: AaBoxA duplex (dsRNA) (dsRNA)
RNA 1: GGCUCCUUGGCA
RNA 2: GGCUCCUUGGCA
As to B1, in data set [1], the binding result is “binds”.

B2: EcBoxA (ssRNA)
RNA: UGCUCUUUAACA
Consider B2, for which, in the data set with EcNusB F122D, the binding result is “no binding”.

B3: AaBoxA (ssRNA)
RNA: GGCUCCUUGGCA
As to B3, the binding result in data set [2] is on record as “binds”.

B4: EcBoxA-BoxB (structured_RNA)
RNA: GCCGCGCCGCUGAGAAAAAGCGAAGCGGCACUGCUCUUUA
Consider B4, for which the binding result in the data set with EcNusB wt was “binds”.
